Target: CXCL12_(2), constitutively dimeric CXCL12 variant (locked dimer) (UniProt P48061)
Experiment: NMR titration

Row | Kd [µM] | Binder
1 | 332 | Ac-SDNYTEE-NH2 [9SDNYTEE15, unsulfated Tyr12 peptide of CXCR4]
2 | 831 | Ac-SGDYDSM-NH2 [18SGDYDSM24, unsulfated Tyr21 peptide of CXCR4]
3 | 418 | Ac-ISIYTSD-NH2 [4ISIYTSD10, unsulfated Tyr7 peptide of CXCR4]
4 | 266 | SDNYTEE (HELM PEPTIDE1{[ac].S.D.N.[O=C([C@H](Cc1ccc(OS(=O)(=O)O)cc1)N[*:1])[*:2]].T.E.E.[am]}$$$$V2.0; SMILES CC(=O)N[C@@H](CO)C(=O)N[C@@H](CC(=O)O)C(=O)N[C@@H](CC(N)=O)C(=O)N[C@@H](Cc1ccc(OS(=O)(=O)O)cc1)C(=O)N[C@H](C(=O)N[C@@H](CCC(=O)O)C(=O)N[C@@H](CCC(=O)O)C(N)=O)[C@@H](C)O) [9SDNsYTEE15, sTyr12 sulfopeptide of CXCR4]
5 | 211 | SGDYDSM (HELM PEPTIDE1{[ac].S.G.D.[O=C([C@H](Cc1ccc(OS(=O)(=O)O)cc1)N[*:1])[*:2]].D.S.M.[am]}$$$$V2.0; SMILES CSCC[C@H](NC(=O)[C@H](CO)NC(=O)[C@H](CC(=O)O)NC(=O)[C@H](Cc1ccc(OS(=O)(=O)O)cc1)NC(=O)[C@H](CC(=O)O)NC(=O)CNC(=O)[C@H](CO)NC(C)=O)C(N)=O) [18SGDsYDSM24, sTyr21 sulfopeptide of CXCR4]
6 | 386 | ISIYTSD (HELM PEPTIDE1{[ac].I.S.I.[O=C([C@H](Cc1ccc(OS(=O)(=O)O)cc1)N[*:1])[*:2]].T.S.D.[am]}$$$$V2.0; SMILES CC[C@H](C)[C@H](NC(C)=O)C(=O)N[C@@H](CO)C(=O)N[C@H](C(=O)N[C@@H](Cc1ccc(OS(=O)(=O)O)cc1)C(=O)N[C@H](C(=O)N[C@@H](CO)C(=O)N[C@@H](CC(=O)O)C(N)=O)[C@@H](C)O)[C@@H](C)CC) [4ISIsYTSD10, sTyr7 sulfopeptide of CXCR4]

— paper PMC3783652
